Biological target: T1, His6-hsPEX19-WT (human, UniProt P40855 1-299)
T1 construct: human PEX19 (hsPEX19); the human PEX19 gene cloned into pET-33b; Made in E. coli, so probably not farnesylated (surmise); also called human PEX19; His6-PEX19; source: E. coli BL21 Star (DE3), purified (Ni-NTA)
T1 sequence (looked up): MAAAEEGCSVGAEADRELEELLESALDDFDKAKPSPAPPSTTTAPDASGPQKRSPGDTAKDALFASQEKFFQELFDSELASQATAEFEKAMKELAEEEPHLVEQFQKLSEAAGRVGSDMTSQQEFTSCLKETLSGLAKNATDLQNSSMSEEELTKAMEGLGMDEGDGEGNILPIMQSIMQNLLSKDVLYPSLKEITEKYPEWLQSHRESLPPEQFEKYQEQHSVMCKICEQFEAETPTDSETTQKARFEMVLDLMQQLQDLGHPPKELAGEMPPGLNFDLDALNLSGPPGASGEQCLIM
Assay: pull-down; His6-PEX19 pulldown with PEX26; input, flowthrough and elution analysed by Western blot with Strep (PEX26) and PEX19 antibodies; hsPEX19 at about 3-fold the endogenous concentration
Conditions: both partners purified

binding result: binds
B1: 2 × Strep-SUMO-PEX26 (237-305aa) (domain or fragment, UniProt Q7Z412 237-305, looked up)
chain: RQLWDSAVSHFFSLPFKKSLLAALILCLLVVRFDPASPSSLHFLYKLAQLFRWIRKAAFSRLYQLRIRD
